In patent US20190212340A1, “AN ELISA-LIKE ASSAY FOR QUANTIFYING ENZYMATIC ACTIVITIES OF MONO-ADP-RIBOSYLTRANSFERASES” (University of Southern California, priority 2016, published 2019) one finds Km and kcat data, which are given here for one protein.

Substrate in data set [1]: NC(=O)c1ccc[n+]([C@@H]2O[C@H](COP(=O)([O-])OP(=O)(O)OC[C@H]3O[C@@H](n4cnc5c(N)ncnc54)C(O)[C@H]3O)[C@H](O)C2O)c1
Briefly: Enzyme kinetics of PARP15-catalyzed automodification by MLISA (Experiment No. 2). The conditions noted are these: other: 500 nM PARP15, NAD+ 5-400 μM, Michaelis-Menten fit; pH 7.4. The data set is classed as biochemical, human. How it is done:
To characterize enzyme kinetics, 96-well plates were coated with reactions in triplicates that consist of 500 nM of PARP15 and NAD^+ at varied concentrations (5, 10, 20, 30, 40, 200, and 400 μM) in reaction buffer (50 mM Tris-HCl, pH 7.4, 2 mM DTT). The reactions were quenched with 20% ice-cold TCA at different time points (0, 2.5, 5, 7.5, 10, 12.5, 15, and 20 minutes). The plates were further incubated for up to 2 hours under room temperature followed by five washes with 200 μL of PBST. Kinetic parameters were calculated by fitting data to Michaelis-Menten model implemented in GraphPad Prism.
To determine reaction rates, standard curves were generated for each reaction plate. […] Upon additions of Coomassie Plus (Bradford) assay reagents to clear 96-well pureGrade plates, the absorbance at 595 nm of each well was measured by Synergy H1 Hybrid Multi-Mode Microplate Reader. The concentrations of automodified PARP15 were calculated through fitting to linear regression curves generated with BSA standards. Standard curves were constructed through linear correlation of the determined concentrations of automodified PARP15 with the fluorescence intensities of the corresponding wells measured on 96-well ELISA plates.

Substrate in data set [2]: NC(=O)c1ccc[n+]([C@@H]2O[C@H](COP(=O)([O-])OP(=O)(O)OC[C@H]3O[C@@H](n4cnc5c(N)ncnc54)C(O)[C@H]3O)[C@H](O)C2O)c1
Kind of data set: Km determination of PARP15 automodification by M2-based ELISA (Experiment No. 1). The conditions noted are these: other: 500 nM PARP15, NAD+ 5 μM to 4 mM; pH 7.4. The data set is classed as biochemical, human. As to the method:
96-well ELISA plates were coated with reactions in triplicates consisting of 500 nM PARP15 with various concentrations of NAD^+ (5, 10, 20, 30, 40, 200, 400, 1000, 2000 and 4000 μM) in Reaction Buffer (50 mM Tris-HCl, pH 7.4, 2 mM dTT). The reactions were quenched with 20% ice-cold TCA at various time points (0 to 20 minutes). The plates were further incubated for up to 2 hour under room temperature followed by five washes of PBST.
PARP15 automodification assay was performed by adding 50 μg/ml PARP15 to Reaction Buffer with 500 μM NAD^+ in a microcentrifuge tube for 2 hours. Automodified PARP15 was diluted and plated simultaneously on both the ELISA plate and clear pureGrade plate according to manufacturer's protocol. Upon addition of Coomassie Plus (Bradford) Assay Reagent the absorbance of each well was measured on a Synergy H1 Hybrid Multi-Mode Microplate Reader (BioTek, VT). The concentrations of automodified PARP15 in each well were determined through linear regression curve using BSA standards. A standard curve was constructed through a linear correlation of automodified PARP15 concentrations and the corresponding fluorescence signals.

B1: PARP15 (Homo sapiens) (protein)
chain: MGHHHHHHIEGRNLPEHWTDMNHQLFCMVQLEPGQSEYNTIKDKFTRTCSSYAIEKIERIQNAFLWQSYQVKKRQMDIKNDHKNNERLLFHGTDADSVPYVNQHGFNRSCAGKNAVSYGKGTYFAVDASYSAKDTYSKPDSNGRKHMYVVRVLTGVFTKGRAGLVTPPPKNPHNPTDLFDSVTNNTRSPKLFVVFFDNQAYPEYLITFTA
notes: The catalytic domains of PARP15 (residue 481-678); His6 (N); Factor Xa cleavage site (IEGR) (N); made in house; host or cells: E. coli BL21 (DE3)
As to B1, in data set [1], the Km was found to be 4.5 ± 2.9 µM and the kcat was determined as 0.000183 ± 1.7e-05 s⁻¹. Also, the Km in data set [2] is 7.148 ± 3.138 µM.
